Here are results for 40 sequences from the nanobody polyreactivity screen of Harvey et al. (2022).

The data set is described as follows: yeast display, Sf9 membrane polyspecificity reagent, FACS + sequencing; frameworks hold sequencing errors. In short, it runs like this:
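Synthetic nanobody libraries on Saccharomyces cerevisiae BJ5465 were galactose-induced for 36–48 hours, stained 1 hour at 4 °C with 10% biotinylated, detergent-solubilized Sf9 membrane reagent and enriched on streptavidin microbeads. FACS then separated cells into low and high (top ~1%) gates by anti-HA (expression) and streptavidin (reagent binding) fluorescence. Genes were colony-PCR amplified, MiSeq 2 × 250 sequenced and CDR-length filtered. A clone's polyreactivity label is that of its gate of origin.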
For the sequence “QVQLVESGGGLVQAGGSLRLSCAASGGTFDNYAMGWYRQAHGKERELVAAISWSGDNTYYADSVKGRFTISRDNAKNTVYLQMNSLKPEVTAVYYCAAVYFWYSYDEGYTAYDYWGQGTQVTVSS”, the “polyreactivity (PSR sort gate)” value is given as “low polyreactivity”. The value for “QVQLVESGGGLVQAGGSLRLSCAASGGTFDVYAMGWYRQAPGKERELVAAISIGGSTYYADSVKGRFTISRDNAKNTVSLQMNSLKPEDTAVYYCAADVNSRYSWRRWYAYDYWGQGTQVTVSS” was “high polyreactivity”; that for “QVQLVESGGGLVQAGGSLRLSCAASGGTFENYPMGWYRQAPGKERELVAAISSGGSTNYADSVKGRFTISRDNAKNTVYLQMNSLKPEDTAVYYCARYRVWGSNGHKLFHYDYWGQGTQVTVSS” was “low polyreactivity”; that for “QVQLVESGGGLVQAGGSLRLSCAASGGTFFVYMGGYRQAPGNERELVADISGSGGGTYYADSVKGRFTISRDNAKNTVYLQMNSLKPEDTAVYYCATDVPTGIIRMYWGQGTQVTVSS” was “low polyreactivity”. Under “QVQLVESGGGLVQAGGSLRLSCAASGGTFGRYAMGWYRQAPGKERELVAAITWRVGSTYADSVKGRFTISRDNAKNTVYLQMNSLKPEDTAVYYCAARRRAPGTKYYYWGQGTQVTVSS” stands “low polyreactivity”; under “QVQLVESGGGLVQAGGSLRLSCAASGGTFGSNAMGWYRQAPGKERELLAAISFSDGITYYADSVKGRFTISRDNAKNTVYLQMNSLKPEDSAVYYCAAELGTSRGGDTMEYWGQGTKVTVSS”, “high polyreactivity”; under “QVQLVESGGGLVQAGGSLRLSCAASGGTFGVYTMGWYRQAPGKERELVAAISWSGGSTYYADSVKGRFTISRDNAKNTVYLQMNSLKPEDTAVYYCAARLKYGRIRVDHWGQGTQVTVSS”, “high polyreactivity”. The value for “QVQLVESGGGLVQAGGSLRLSCAASGGTFIMYAMGWYRQAPGKERELVASITWSGGRTYYADSVKGRFTISRDNSKNTVYLQMNSLKPEDTAVYYCNTPPSYIMDYWGQGTQVTVSS” was “low polyreactivity”; that for “QVQLVESGGGLVQAGGSLRLSCAASGGTFIRYAMGWYRQAPGKEREFVAAISASGGSTYYADSVKGRFTISRDNAKNTVYLQMNSLKPEDTAVYYCAARRTNLPVKFYYWGQGTQVTVSS” was “high polyreactivity”; that for “QVQLVESGGGLVQAGGSLRLSCAASGGTFKTNAMGWYRQAPGKERELVAAITGSGTSTYYADSVKGRFTISRDNAKYTVYLQMNSLKPEDTAVYYCAADKLYQPGIGDDYWGQGTQVTVSS” was “low polyreactivity”. For the sequence “QVQLVESGGGLVQAGGSLRLSCAASGGTFLFYGMGWYRQAPGKERELVAVITWSGGSTYYADSVKGRFTISRDNAKNTVYLQMNSLKPEDTAVYYCNAANTGSPDYQSIGYNFNYWGQGTQVTVSS”, the “polyreactivity (PSR sort gate)” value is “low polyreactivity”. The value for “QVQLVESGGGLVQAGGSLRLSCAASGGTFLGNAMGWYRQAPGKERELVADITSGGSTNYADSVKGRFTITRDNAKNTVYLQMNSLKPEDTAVYYCNARWWFQLYYYSTFAGYNYWGQGTQVTVSS” was “low polyreactivity”; that for “QVQLVESGGGLVQAGGSLRLSCAASGGTFLYYAMGWYRQAPGKERELVAAISSSTGSTNYADSVKGRFTISRDNAKNTVYLQMNSLKPEDTAVYYCAAAPHRHSWYYTRHPYFCMDYWGQGTQVTVSS” was “low polyreactivity”. Consider “QVQLVESGGGLVQAGGSLRLSCAASGGTFNGNTMGWYRQAPGKERELVAVIDWSGGSTYYADSVKGRFTISRDNAKNTVYLQMNSLKPEDTAVYYYNADSDAQFREPKGLYYWGQGTQVTVSS”, for which the “polyreactivity (PSR sort gate)” value was “low polyreactivity”. Under “QVQLVESGGGLVQAGGSLRLSCAASGGTFNQYAMGWYRQAPGKEREFVASISRRGGSTYYADSVKGRFTISRDNAKNTVYLQMNSLKPEDTAVYYCAADAFFRLDYYYWGQGTQVTVSS” stands “high polyreactivity”; under “QVQLVESGGGLVQAGGSLRLSCAASGGTFNTYAMGWYRQAPGKERELVAAITSSGGSTFYADSVKGRFTISRDNAKNTVYLQMNSLKPEDTAVYYCAAKSYWTIVYRHPGYYYWGQGTQVTVSS”, “low polyreactivity”. The value for “QVQLVESGGGLVQAGGSLRLSCAASGGTFPWYTMGWYRQAPGKERELFAAISWRGGRTYYADSVKGRFTISRDNAKNTVYLQMNSLKPEDTAVYYCAATPRYRVYYGSYYLRYDYWGQGTQVTVSS” was “high polyreactivity”.

Regarding “QVQLVESGGGLVQAGGSLRLSCAASGGTFQAYAMGWYSQAPGKDREFDAAITAGGGSTSYADSVKGRFTISRDNAKNTVDLQLNRLKPEDSAAYYCAVDGGFPVTDYDYWGQGTQVTVST”, the “polyreactivity (PSR sort gate)” value is “low polyreactivity”. As for “QVQLVESGGGLVQAGGSLRLSCAASGGTFQYYTMGWYRQAPGKERELVAGISSGGSTYYPDSVKGRFTISRDNAMNTVYLQMNRLKPEVTAVYYCNAVSRRKTYGYRIIKYDYWGQGTQVTVSS”, the “polyreactivity (PSR sort gate)” value was “high polyreactivity”. As to “QVQLVESGGGLVQAGGSLRLSCAASGGTFRAYVMGWYRQAPGKERELVAAISRSGTRTYYADSVKGRFTISRDNAKNTVYSQLNSLKPEDTAVYYCAAAANSWLFDYWGQGTQVTVSS”, the “polyreactivity (PSR sort gate)” value is listed as “high polyreactivity”. Under “QVQLVESGGGLVQAGGSLRLSCAASGGTFRGYAMGWYRQATGKERELVAAITYSGGRTYYADSVKGRFTISRDNAKNTVYLQMNSLKPEDTAVYYCNAQSSGRLSYRYDYWGQGTQVTVSS” stands “high polyreactivity”; under “QVQLVESGGGLVQAGGSLRLSCAASGGTFRKNTMGWYRQAPGKERELVAAITRRADRTYYADSVKGRFTISRDNAKNTVYLQMNSLKPEDTAVYYCNAPPPPTKVGGYDYWGQGTQVTVSS”, “high polyreactivity”. The value for “QVQLVESGGGLVQAGGSLRLSCAASGGTFRNYAMGWYRQAPGKERELVAAITTGTITNYADSVKGRFTISRDNAKNTVYLQLNSLKPEDTAVYYCNAGAFYSDPYVYWGQGNQVTVSS” was “low polyreactivity”.

In the case of “QVQLVESGGGLVQAGGSLRLSCAASGGTFRRNAMGWYRQAPGKERELVAAISFNGDRTYYADSVKGRFTISRDNAKNTVYLQMNSLKPEDTAVYYCNKASWWWGGYTYPHEYWGQGTQVTVSS”, the “polyreactivity (PSR sort gate)” value was “low polyreactivity”. Regarding “QVQLVESGGGLVQAGGSLRLSCAASGGTFRTYAMGWYRQAAGKERELVAAITGSGGRTYYADSVKGRFTISRDNAKNTVYLQMNSLKPEDTAVYDCNTGPVYQGYHWGQGTQVTVSS”, the “polyreactivity (PSR sort gate)” value is listed as “high polyreactivity”.

On to “QVQLVESGGGLVQAGGSLRLSCAASGGTFRVYAMGWYRKAPGKERELVAAITGRGGSTYYADSVKGRFTISRDNAKNTVYLQMNSLKPEDTAVYDCAKDPVTTYYKYDYWGQGTQVTVSS”, for which the “polyreactivity (PSR sort gate)” value is “low polyreactivity”.

In the case of “QVQLVESGGGLVQAGGSLRLSCAASGGTFRWNARGWYRQAPGKERELVAAITKSGGSTYYADSVKGRFTISRDIAKNTVYLQMNSLKPEDTAVYYCATDYLRRRDYWGQGTQVTVSS”, the “polyreactivity (PSR sort gate)” value is listed as “high polyreactivity”. The value for “QVQLVESGGGLVQAGGSLRLSCAASGGTFSAYAMGWYRQAPGKERELVAAISYRGGRTYYADSVKGRFTISRDNAKNTVYLQMNSLKPEDTAVYYCNARRGSATHSVTARRGYWGQGTQVTVSS” was “high polyreactivity”; that for “QVQLVESGGGLVQAGGSLRLSCAASGGTFSCYAMGWYRQAPGKERELVAAITRRGGRTYYADSVKGRFTISRDNAKNTVYLQMNSLKPEDTAVYYCNTDYKFDYVGFSTWVVRYDYWGQGTQVTVSS” was “low polyreactivity”. For “QVQLVESGGGLVQAGGSLRLSCAASGGTFSLNAMGWSRQAPGKERELVAAITYSTGRTHYADSVKGRFTISRDNAKNTVYLQMNSLKPEDTAVYYCAARVYGTKMDYWGQGTQVTVSS”, the “polyreactivity (PSR sort gate)” value is listed as “high polyreactivity”.

Turning to “QVQLVESGGGLVQAGGSLRLSCAASGGTFSPNTMGWYRHAPGKERELVAAISSSGSTSYADSVKGRFTISRDNAKNTVYLQMNSLKPEDTAVYYCNADDTISYYASGFDNYDYWGQGSQVTVSS”, the “polyreactivity (PSR sort gate)” value is listed as “low polyreactivity”. Under “QVQLVESGGGLVQAGGSLRLSCAASGGTFSRNAMGWYRQAPGKERELVAAINTSGVSTSYADSVKGRFTISRDNAKNTVYLQMNSLKPEDTAVYYCAAETSSAEVDYWGQGTQVTVSS” stands “low polyreactivity”; under “QVQLVESGGGLVQAGGSLRLSCAASGGTFSRNAMGWYRQAPGKERELVAAITWSGTRTYYADSVKGRFTISRDNAKNTVYLQMNSLKPEDTAVYYCATKGRRSADDTLLDYWGQGTQVTVSS”, “high polyreactivity”. Under “QVQLVESGGGLVQAGGSLRLSCAASGGTFSTNTMGWYRQAPGKEMELVAAITEGTGNTYYADSVKGRFTISRDTAKNTVYLQMNSLKPEDTAVYDCATVAYSGSDFSGSAGAGDYWGQGTQVTVSS” stands “low polyreactivity”; under “QVQLVESGGGLVQAGGSLRLSCAASGGTFSTSAMGWYRQAPGKERELVAAISLSGVRTYYADSVKGRFTISRDNAKNTVYLQMNSLKAEVTAVDYCATRPYSPWRLYYWGQGTQVTGSS”, “high polyreactivity”.

On to “QVQLVESGGGLVQAGGSLRLSCAASGGTFSTYAMGWYRQAPGKEREFVAAITRSGTSTYYADSVKGRFTISRDNAKNTVYLQMNSLKPEDTAVYYCATGEHFYRKLDYWGQGTQVTVSS”, for which the “polyreactivity (PSR sort gate)” value is listed as “low polyreactivity”.

For the sequence “QVQLVESGGGLVQAGGSLRLSCAASGGTFSVYVMGWYRQAPGKERELVAAIRDRGVSTYYADSVKGRFTISRDNAKNTVYLQMNSEKPEDTAVSYCAAKYSYSRKPGAYYYWGQGTQVTVSS”, the “polyreactivity (PSR sort gate)” value is “high polyreactivity”. Take “QVQLVESGGGLVQAGGSLRLSCAASGGTFTHNAMGWYRQAPGKERELVAAISSSGVRTYYADSVKGRFTISRDNAKNTVYLQMNSLKPEDTAVYYCAADRFRRLHYWTYDYWGQGTQVTVSS”: the “polyreactivity (PSR sort gate)” value is recorded as “high polyreactivity”. Under “QVQLVESGGGLVQAGGSLRLSCAASGGTFTKNAMGWYRQAPGKERELVAAINYSGGSTYYADSVKGRFTISRDNAKNTVYLQMNSLKPEDTAVYYCAADDYRDGFTQYDYWGQGTQVTVSS” stands “low polyreactivity”; under “QVQLVESGGGLVQAGGSLRLSCAASGGTFTKNPMGWYRQAPGKERELVATITFSDGSTYYADSVKGRFTISRDNAKNTVYLQMNSLKPEDTAVYYCNARRSYFLRYGVNYWGQGTQVTVSS”, “low polyreactivity”.
